Source: paper PMC3516549 (PLoS Pathogens, 2012)
Where “and” joins values, the source holds several entries; their conditions need not be identical. Equal entries are not always repeated.

Columns and labels:
[1] = molecular target: recombinant trimerized His-tagged soluble HA of A/South Carolina/1/18 (1918 wt) (Influenza A virus A/South …, UniProt Q9WFX3, strain); test: BLI; […]; 1:1 binding model, […]; conditions: both partners purified
[2] = molecular target: recombinant trimerized His-tagged soluble HA, A/South Carolina/1/18 (1918 wt) (Influenza A virus A/South …, UniProt Q9WFX3, strain); test: BLI; conditions: both partners purified

B1: 1I20 Fab (Fab, V domains shown)
VH: EVQLVESGGGVVQPGGSLRLSCIASAFNLGIFGMHWVRQAPGKGLEWVAFIRYDGGKTFYADSVKGRFTISRDNSKNTLYLQMNSLRTEDTALYYCARDATADYYGPGSYPNWLDPWGQGTLVTVSS
VL: DIRLTQSPATLSVSPGERATLSCRASHSVSRNLAWYQQKPGRAPRLLVYDTSSRATGIPARFSGSGSGTEFTLTISSLQSEDFAVYYCQQYNNWPRTFGQGTKVDIK
notes: also called mAb 1I20; source: HEK 293F, transiently co-transfected, purified (HiTrap Protein G)
- Kd [1]: 3.22 nM and 3.46 nM
- koff [1]: 0.000375 s⁻¹ and 0.000366 s⁻¹
- kon [1]: 116000 M⁻¹ s⁻¹ and 106000 M⁻¹ s⁻¹

B2: 1I20 Fab (Fab, V domains shown)
VH: B1 VH
VL: B1 VL
notes: also called mAb 1I20
- Kd [2]: 3.3 nM
